Data reported in patent publication US20180339041A1 (Kyowa Kirin, published 2018).
Several values for one entry are separate records, joined by “and”; a condition that tells them apart may be missing. Equal entries are not always repeated.

T1: C-terminally FLAG-tagged human Gas6 recombinant protein (hGas6-F) (human, UniProt Q14393 31-678, gamma-carboxylated glutamic acid residues in the Gla domain (producer cells co-express rat VKOR and human GGCX); positions not given)
T1 construct: also called human Gas6-F; human Gas6 protein
T1 sequence: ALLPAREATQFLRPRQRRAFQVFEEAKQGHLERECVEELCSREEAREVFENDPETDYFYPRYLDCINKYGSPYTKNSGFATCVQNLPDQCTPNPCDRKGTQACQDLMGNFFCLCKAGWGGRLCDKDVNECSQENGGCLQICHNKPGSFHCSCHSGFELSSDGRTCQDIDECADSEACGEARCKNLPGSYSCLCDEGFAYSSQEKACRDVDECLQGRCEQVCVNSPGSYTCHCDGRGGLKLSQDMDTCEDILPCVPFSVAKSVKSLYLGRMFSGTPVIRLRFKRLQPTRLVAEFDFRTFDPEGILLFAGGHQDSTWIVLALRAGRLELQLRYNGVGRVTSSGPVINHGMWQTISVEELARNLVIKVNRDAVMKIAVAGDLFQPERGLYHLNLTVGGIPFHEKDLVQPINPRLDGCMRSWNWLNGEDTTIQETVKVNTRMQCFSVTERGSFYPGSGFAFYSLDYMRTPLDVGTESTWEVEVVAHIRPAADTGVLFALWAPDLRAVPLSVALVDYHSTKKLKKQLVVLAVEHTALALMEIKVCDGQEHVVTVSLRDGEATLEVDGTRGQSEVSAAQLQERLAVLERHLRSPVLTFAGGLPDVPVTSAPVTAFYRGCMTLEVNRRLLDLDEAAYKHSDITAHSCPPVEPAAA


Legend:
[1] = target: T1, C-terminally FLAG-tagged human Gas6 …; assay: ELISA, hGas6-F captured by anti-FLAG, anti-human IgG-HRP
Protocol: First, 2 μg/mL anti-FLAG antibody [Monoclonal ANTI-FLAG M2 antibody produced in mouse (manufactured by Sigma-Aldrich Co. LLC) diluted with PBS (manufactured by Nacalai Tesque, Inc.)] was dispensed at 50 μL/well to a 96-well plate for ELISA (manufactured by Nalge Nunc International), and the plate was left standing overnight at 4° C. for adsorption. After removal of the immobilization solution, 1% BSA-PBS (manufactured by Nacalai Tesque, Inc.) was added thereto at 300 μL/well, and the plate was left standing at room temperature for 1 hour for blocking and washed five times with Tween 20-PBS (manufactured by Wako Pure Chemical Industries Ltd.).
In order to reduce the backgrounds of measurement values, the diluted secondary antibody solution was mixed with 50 μg/mL of an anti-DNP mouse IgG1 antibody and incubated at room temperature for 1 hour for use.

[2] = target: T1, C-terminally FLAG-tagged human Gas6 …; assay: SPR Biacore T100, captured antibody, Gas6 analyte, retest
Protocol: (§1) An anti-human IgG antibody was immobilized on a CM5 sensor chip (manufactured by GE Healthcare Japan Corp.) using Human Antibody Capture Kit (manufactured by GE Healthcare Japan Corp.) according to the attached manual. Each test antibody adjusted to 1 μg/mL was added for 10 seconds at a flow rate of 10 μL/min to flow cells. […] The measurement was performed by the […] method. The obtained sensorgram was analyzed using Bia Evaluation Software (manufactured by GE Healthcare Japan Corp.), and the kinetic constant of each antibody was calculated.
In this retest, unlike the test mentioned above, the number of antibodies to be measured and variations in the concentration of the analyte were decreased, and the assay was conducted for a short time (within several hours), instead of sufficiently leaving standing the analyte added to the vial. […] This minimizes the adsorption of the analyte to the vial and permits more accurate calculation of ka and KD values than that in the test mentioned above.

[3] = target: T1, C-terminally FLAG-tagged human Gas6 …; assay: SPR Biacore T100, captured antibody, Gas6 analyte, first test
Protocol: as §1

[4] = target: T1, C-terminally FLAG-tagged human Gas6 …; assay: competitive ELISA, inhibition of hGas6-F binding to immobilised hAxl-hFc

Binder | EC50 [1] | Kd [2] | koff [2] | kon [2] | Kd [3] | koff [3] | kon [3] | IC50 [4]
hzKM5320 LV1bHV0 antibody (antibody, V domains shown, Humanized; variant human IgG4 constant region (EU S228P, L235E, R409K), human kappa; also called A-04) VH: QVQLVQSGSELKKPGASVKVSCKASGYTFTNYGMNWVRQAPGQGLEWMGWINTETGEPTYSDDFKGRFVFSLDTSVSTAYLQISSLKAEDTAVYYCAREDGYYGTLDYWGQGTTVTVSS VL: DVVMTQSPDSLAVSLGERVTINCKASQSVSNDVAWYQQKPGQSPKLLIYYASNRYTGVPDRFSGSGSGTDFTLTISSVQAEDVAVYYCQQDYSSPWTFGQGTKLEIK | 0.0191 µg/mL | 16.5 nM | 0.00149 s⁻¹ | 90000 M⁻¹ s⁻¹ | < 16 nM | 0.00115 s⁻¹ | > 72000 M⁻¹ s⁻¹ | 0.742 µg/mL
hzKM5320 LV5HV2 antibody (antibody, V domains shown, Humanized; variant human IgG4 constant region (EU S228P, L235E, R409K), human kappa; also called kzKM5320 LV5HV2; A-20) VH: QVQLVQSGSELKKPGASVKVSCKASGYTFTNYGMNWVRQAPGQGLEWMGWINTETGEPTYSDDFKGRFVFSLDTSVSTAYLQISSLKAEDTATYFCAREDGYYGTLDYWGQGTTVTVSS VL: DIVMTQSPDSLAVSLGERVTINCKASQSVSNDVAWYQQKPGQSPKVLIYYASNRYTGVPDRFSGSGSGTDFTFTISSVQAEDVAVYFCQQDYSSPWTFGQGTKLEIK | 0.0122 µg/mL | 1.29 nM | 0.000197 s⁻¹ | 152000 M⁻¹ s⁻¹ | < 2.13 nM | 0.000158 s⁻¹ | > 74300 M⁻¹ s⁻¹ | 0.0336 µg/mL
hzKM5321 LV6HV3a antibody (antibody, V domains shown, Humanized; variant human IgG4 constant region (EU S228P, L235E, R409K), human kappa; also called B-25; LV6HV3a) VH: QVHLVQSGPELKKPGASVKISCKASGYTFTNYGMNWVRQAPGQGLKWMGWINTNTGEPTYTEEFKGRFVFSLDTSVTTSYLQISTLKAEDTATYFCARDEGWFVYWGQGTLVTVSS VL: ETTLTQSPSSLSVSTGDRVTITCITSTDIDDDMNWYQQKPGKPPKLLISEGNTLRPGVPSRFSSSGSGTDFTLTISSTQPEDFADYYCLQTDSVPLTFGQGTKVEIK |  |  |  |  | < 2.15 nM | 0.000226 s⁻¹ | > 105000 M⁻¹ s⁻¹ | 
hzKM5321 LV6HV3b antibody (antibody, V domains shown, Humanized; variant human IgG4 constant region (EU S228P, L235E, R409K), human kappa; also called B-26; LV6HV3b) VH: QVHLVQSGSELKKPGASVKISCKASGYTFTNYGMNWVKQAPGQGLKWMGWINTNTGEPTYTEEFKGRFVFSLDTSVTTSYLQISTLKAEDTATYFCARDEGWFVYWGQGTLVTVSS VL: ETTLTQSPSSLSVSTGDRVTITCITSTDIDDDMNWYQQKPGKPPKLLISEGNTLRPGVPSRFSSSGSGTDFTLTISSTQPEDFADYYCLQTDSVPLTFGQGTKVEIK |  |  |  |  | < 1.88 nM | 0.0002 s⁻¹ | > 106000 M⁻¹ s⁻¹ | 
hzKM5321 LV6HV4a antibody (antibody, V domains shown, Humanized; variant human IgG4 constant region (EU S228P, L235E, R409K), human kappa; also called B-27; LV6HV4a) VH: QIHLVQSGPELKKPGASVKISCKASGYTFTNYGMNWVRQAPGQGLEWMGWINTNTGEPTYTEEFKGRFVFSLDTSVTTAYLQISTLKAEDTAVYFCARDEGWFVYWGQGTLITVSS VL: ETTLTQSPSSLSVSTGDRVTITCITSTDIDDDMNWYQQKPGKPPKLLISEGNTLRPGVPSRFSSSGSGTDFTLTISSTQPEDFADYYCLQTDSVPLTFGQGTKVEIK |  |  |  |  | < 3.2 nM | 0.000341 s⁻¹ | > 106000 M⁻¹ s⁻¹ | 
hzKM5321 LV6HV4b antibody (antibody, V domains shown, Humanized; variant human IgG4 constant region (EU S228P, L235E, R409K), human kappa; also called B-28; LV6HV4b) VH: QVHLVQSGPELKKPGASVKISCKASGYTFTNYGMNWVKQAPGQGLKWMGWINTNTGEPTYTEEFKGRFVFSLDTSVTTSYLQISTLKAEDTATYFCARDEGWFVYWGQGTLVTVSS VL: ETTLTQSPSSLSVSTGDRVTITCITSTDIDDDMNWYQQKPGKPPKLLISEGNTLRPGVPSRFSSSGSGTDFTLTISSTQPEDFADYYCLQTDSVPLTFGQGTKVEIK |  |  |  |  | < 1.92 nM | 0.000204 s⁻¹ | > 106000 M⁻¹ s⁻¹ | 
hzKM5321 LV6HV5 antibody (antibody, V domains shown, Humanized; variant human IgG4 constant region (EU S228P, L235E, R409K), human kappa; also called B-29; LV6HV5) VH: QIHLVQSGSELKKPGASVKISCKASGYTFTNYGMNWVKQAPGQGLKWMGWINTNTGEPTYTEEFKGRFVFSLDTSVTTAYLQISTLKAEDTAVYFCARDEGWFVYWGQGTLITVSS VL: ETTLTQSPSSLSVSTGDRVTITCITSTDIDDDMNWYQQKPGKPPKLLISEGNTLRPGVPSRFSSSGSGTDFTLTISSTQPEDFADYYCLQTDSVPLTFGQGTKVEIK |  |  |  |  | < 2.61 nM | 0.000277 s⁻¹ | > 106000 M⁻¹ s⁻¹ | 
hzKM5321 LV6HV7 antibody (antibody, V domains shown, Humanized; variant human IgG4 constant region (EU S228P, L235E, R409K), human kappa; also called B-18; LV6HV7) VH: QIHLVQSGPELKKPGASVKISCKASGYTFTNYGMNWVKQAPGQGLKWMGWINTNTGEPTYTEEFKGRFVFSLDTSVTTAYLQISTLKAEDTATYFCARDEGWFVYWGQGTLITVSS VL: ETTLTQSPSSLSVSTGDRVTITCITSTDIDDDMNWYQQKPGKPPKLLISEGNTLRPGVPSRFSSSGSGTDFTLTISSTQPEDFADYYCLQTDSVPLTFGQGTKVEIK |  |  |  |  | < 2.59 nM | 0.000281 s⁻¹ and 0.000278 s⁻¹ | > 107000 M⁻¹ s⁻¹ | 
hzKM5321 LV7aHV0 antibody (antibody, V domains shown, Humanized; variant human IgG4 constant region (EU S228P, L235E, R409K), human kappa; also called B-09; LV7aHV0) VH: QVHLVQSGSELKKPGASVKISCKASGYTFTNYGMNWVRQAPGQGLEWMGWINTNTGEPTYTEEFKGRFVFSLDTSVTTSYLQISTLKAEDTAVYFCARDEGWFVYWGQGTLVTVSS VL: ETTLTQSPSSLSVSTGDRVTITCITSTDIDDDMNWYQQKPGKPPKLLISEGNTLRPGVPSRFSSSGSGTDFTFTISSTQPEDFADYYCLQTDSVPLTFGQGTKVEIK |  |  |  |  | < 1.41 nM | 0.000188 s⁻¹ | > 133000 M⁻¹ s⁻¹ | 
hzKM5321 LV7aHV7 antibody (antibody, V domains shown, Humanized; variant human IgG4 constant region (EU S228P, L235E, R409K), human kappa; also called B-19; LV7aHV7) VH: QIHLVQSGPELKKPGASVKISCKASGYTFTNYGMNWVKQAPGQGLKWMGWINTNTGEPTYTEEFKGRFVFSLDTSVTTAYLQISTLKAEDTATYFCARDEGWFVYWGQGTLITVSS VL: ETTLTQSPSSLSVSTGDRVTITCITSTDIDDDMNWYQQKPGKPPKLLISEGNTLRPGVPSRFSSSGSGTDFTFTISSTQPEDFADYYCLQTDSVPLTFGQGTKVEIK |  |  |  |  | < 2.91 nM | 0.000299 s⁻¹ | > 103000 M⁻¹ s⁻¹ | 
hzKM5321 LV7bHV7 antibody (antibody, V domains shown, Humanized; variant human IgG4 constant region (EU S228P, L235E, R409K), human kappa; also called B-20; LV7bHV7) VH: QIHLVQSGPELKKPGASVKISCKASGYTFTNYGMNWVKQAPGQGLKWMGWINTNTGEPTYTEEFKGRFVFSLDTSVTTAYLQISTLKAEDTATYFCARDEGWFVYWGQGTLITVSS VL: ETTVTQSPSSLSVSVGDRVTITCITSTDIDDDMNWYQQKPGKAPKLLISEGNTLRPGVPSRFSSSGSGTDFTFTISSTQPEDFADYYCLQTDSVPLTFGQGTKLEIK |  |  |  |  | < 3.07 nM | 0.000329 s⁻¹ | > 107000 M⁻¹ s⁻¹ | 
hzKM5321 LV9HV0 antibody (antibody, V domains shown, Humanized; variant human IgG4 constant region (EU S228P, L235E, R409K), human kappa; also called B-11; LV9HV0) VH: QVHLVQSGSELKKPGASVKISCKASGYTFTNYGMNWVRQAPGQGLEWMGWINTNTGEPTYTEEFKGRFVFSLDTSVTTSYLQISTLKAEDTAVYFCARDEGWFVYWGQGTLVTVSS VL: ETTVTQSPSSLSVSTGDRVTITCITSTDIDDDMNWYQQKPGKPPKLLISEGNTLRPGVPSRFSSSGSGTDFTFTISSTQPEDFADYYCLQTDSVPLTFGQGTKLEIK |  |  |  |  | < 1.96 nM | 0.000247 s⁻¹ | > 126000 M⁻¹ s⁻¹ | 
hzKM5321 LV9HV7 antibody (antibody, V domains shown, Humanized; variant human IgG4 constant region (EU S228P, L235E, R409K), human kappa; also called B-21; LV9HV7) VH: QIHLVQSGPELKKPGASVKISCKASGYTFTNYGMNWVKQAPGQGLKWMGWINTNTGEPTYTEEFKGRFVFSLDTSVTTAYLQISTLKAEDTATYFCARDEGWFVYWGQGTLITVSS VL: ETTVTQSPSSLSVSTGDRVTITCITSTDIDDDMNWYQQKPGKPPKLLISEGNTLRPGVPSRFSSSGSGTDFTFTISSTQPEDFADYYCLQTDSVPLTFGQGTKLEIK |  |  |  |  | < 3.33 nM | 0.000352 s⁻¹ | > 106000 M⁻¹ s⁻¹ | 
